To fix the notation:
B1: Mutant A05: engineered murine acyltransferase, mutation K186E (protein)
chain: NKRPLWFICSGMGTQWRGMGLSLMRLDSFRESILRSDEAVKPLGVKVSDLLLSTDERTFDDIVHAFVSLTAIQIALIDLLTSVGLKPDGIIGHSLGEVACGYADGCLSQREAVLAAYWRGQCIKDAHLPPGSMAAVGLSWEECKQRCPAGVVPACHNSEDTVTISGPQAAVNEFVEQLKQEGVFAEEVRTGGLAFHSYFMEGIAPTLLQALKKVIREPRPRSARWLSTSIPEAQWQSSLARTSSAEYNVNNLVSPVLFQEALWHIPEHAVVLEIAPHALLQAVLKRGVKSSCTIIPLMKRDHKDNLEFFLTNLGKVHLT
B2: Mutant A10: engineered murine acyltransferase, mutation R300D (protein)
chain: NKRPLWFICSGMGTQWRGMGLSLMRLDSFRESILRSDEAVKPLGVKVSDLLLSTDERTFDDIVHAFVSLTAIQIALIDLLTSVGLKPDGIIGHSLGEVACGYADGCLSQREAVLAAYWRGQCIKDAHLPPGSMAAVGLSWEECKQRCPAGVVPACHNSEDTVTISGPQAAVNEFVEQLKQEGVFAKEVRTGGLAFHSYFMEGIAPTLLQALKKVIREPRPRSARWLSTSIPEAQWQSSLARTSSAEYNVNNLVSPVLFQEALWHIPEHAVVLEIAPHALLQAVLKRGVKSSCTIIPLMKDDHKDNLEFFLTNLGKVHLT
B3: Mutant A11: engineered murine acyltransferase, mutation R300E (protein)
chain: NKRPLWFICSGMGTQWRGMGLSLMRLDSFRESILRSDEAVKPLGVKVSDLLLSTDERTFDDIVHAFVSLTAIQIALIDLLTSVGLKPDGIIGHSLGEVACGYADGCLSQREAVLAAYWRGQCIKDAHLPPGSMAAVGLSWEECKQRCPAGVVPACHNSEDTVTISGPQAAVNEFVEQLKQEGVFAKEVRTGGLAFHSYFMEGIAPTLLQALKKVIREPRPRSARWLSTSIPEAQWQSSLARTSSAEYNVNNLVSPVLFQEALWHIPEHAVVLEIAPHALLQAVLKRGVKSSCTIIPLMKEDHKDNLEFFLTNLGKVHLT
B4: Mutant A07: engineered murine acyltransferase, mutation K186D (protein)
chain: NKRPLWFICSGMGTQWRGMGLSLMRLDSFRESILRSDEAVKPLGVKVSDLLLSTDERTFDDIVHAFVSLTAIQIALIDLLTSVGLKPDGIIGHSLGEVACGYADGCLSQREAVLAAYWRGQCIKDAHLPPGSMAAVGLSWEECKQRCPAGVVPACHNSEDTVTISGPQAAVNEFVEQLKQEGVFADEVRTGGLAFHSYFMEGIAPTLLQALKKVIREPRPRSARWLSTSIPEAQWQSSLARTSSAEYNVNNLVSPVLFQEALWHIPEHAVVLEIAPHALLQAVLKRGVKSSCTIIPLMKRDHKDNLEFFLTNLGKVHLT
B5: Mutant A15: engineered murine acyltransferase, mutations K186E R300E (protein)
chain: NKRPLWFICSGMGTQWRGMGLSLMRLDSFRESILRSDEAVKPLGVKVSDLLLSTDERTFDDIVHAFVSLTAIQIALIDLLTSVGLKPDGIIGHSLGEVACGYADGCLSQREAVLAAYWRGQCIKDAHLPPGSMAAVGLSWEECKQRCPAGVVPACHNSEDTVTISGPQAAVNEFVEQLKQEGVFAEEVRTGGLAFHSYFMEGIAPTLLQALKKVIREPRPRSARWLSTSIPEAQWQSSLARTSSAEYNVNNLVSPVLFQEALWHIPEHAVVLEIAPHALLQAVLKRGVKSSCTIIPLMKEDHKDNLEFFLTNLGKVHLT
B6: Mutant A12: engineered murine acyltransferase, mutations K186D R300D (protein)
chain: NKRPLWFICSGMGTQWRGMGLSLMRLDSFRESILRSDEAVKPLGVKVSDLLLSTDERTFDDIVHAFVSLTAIQIALIDLLTSVGLKPDGIIGHSLGEVACGYADGCLSQREAVLAAYWRGQCIKDAHLPPGSMAAVGLSWEECKQRCPAGVVPACHNSEDTVTISGPQAAVNEFVEQLKQEGVFADEVRTGGLAFHSYFMEGIAPTLLQALKKVIREPRPRSARWLSTSIPEAQWQSSLARTSSAEYNVNNLVSPVLFQEALWHIPEHAVVLEIAPHALLQAVLKRGVKSSCTIIPLMKDDHKDNLEFFLTNLGKVHLT
B7: Mutant A13: engineered murine acyltransferase, mutations K186D R300E (protein)
chain: NKRPLWFICSGMGTQWRGMGLSLMRLDSFRESILRSDEAVKPLGVKVSDLLLSTDERTFDDIVHAFVSLTAIQIALIDLLTSVGLKPDGIIGHSLGEVACGYADGCLSQREAVLAAYWRGQCIKDAHLPPGSMAAVGLSWEECKQRCPAGVVPACHNSEDTVTISGPQAAVNEFVEQLKQEGVFADEVRTGGLAFHSYFMEGIAPTLLQALKKVIREPRPRSARWLSTSIPEAQWQSSLARTSSAEYNVNNLVSPVLFQEALWHIPEHAVVLEIAPHALLQAVLKRGVKSSCTIIPLMKEDHKDNLEFFLTNLGKVHLT
B8: Mutant A14: engineered murine acyltransferase, mutations K186E R300D (protein)
chain: NKRPLWFICSGMGTQWRGMGLSLMRLDSFRESILRSDEAVKPLGVKVSDLLLSTDERTFDDIVHAFVSLTAIQIALIDLLTSVGLKPDGIIGHSLGEVACGYADGCLSQREAVLAAYWRGQCIKDAHLPPGSMAAVGLSWEECKQRCPAGVVPACHNSEDTVTISGPQAAVNEFVEQLKQEGVFAEEVRTGGLAFHSYFMEGIAPTLLQALKKVIREPRPRSARWLSTSIPEAQWQSSLARTSSAEYNVNNLVSPVLFQEALWHIPEHAVVLEIAPHALLQAVLKRGVKSSCTIIPLMKDDHKDNLEFFLTNLGKVHLT
B9: Mutant A08: engineered murine acyltransferase, mutation K285D (protein)
chain: NKRPLWFICSGMGTQWRGMGLSLMRLDSFRESILRSDEAVKPLGVKVSDLLLSTDERTFDDIVHAFVSLTAIQIALIDLLTSVGLKPDGIIGHSLGEVACGYADGCLSQREAVLAAYWRGQCIKDAHLPPGSMAAVGLSWEECKQRCPAGVVPACHNSEDTVTISGPQAAVNEFVEQLKQEGVFAKEVRTGGLAFHSYFMEGIAPTLLQALKKVIREPRPRSARWLSTSIPEAQWQSSLARTSSAEYNVNNLVSPVLFQEALWHIPEHAVVLEIAPHALLQAVLDRGVKSSCTIIPLMKRDHKDNLEFFLTNLGKVHLT

The values below come from patent US20260218138A1, “ENGINEERED ACYLTRANSFERASES HAVING ALTERED SUBSTRATE SPECIFICITY” (KEZBIOSOLUTIONS GMBH, priority 2022, published 2026).

The Km is the substrate concentration at which the rate is half of its maximum. Usually kcat stands for the number of substrate molecules converted per active site and unit of time at saturation.

The nature of the data set: Enzyme-coupled assay: transfer of acyl-moieties from MMal-CoA to the ACP. To be noted: substrate MMal-CoA, acceptor ACP from murine FAS. In kind it is biochemical. How it is done:
An enzyme-coupled assay was performed to analyze the transfer of acyl-moieties from CoA to the ACP. Four solutions were prepared as 4× concentrated stocks in the assay buffer. Solution 1 contained the acyltransferase at the concentration range of 0.01 μM-10 μM, depending on the transfer kinetics to achieve good signal to noise ratios. Solution 2 contained the enzyme-coupled system including 8 mM α-ketoglutaric acid, 1.6 mM NAD+, 1.6 mM TPP and 60 mU/100 μL αKGDH. Solution 3 contained the methylmalonyl (MMal)-CoA at concentrations between 0.1 μM and 1,000 μM and solution 4 contained the ACP from murine FAS as a standalone protein at 240 μM. 5 μL of Solutions 1-3 were pipetted into a 384-well Small Volume HiBase Microplates (Greiner Bio-one) and mixed manually. The reactions were started by adding solution 4 with the dispenser system of the microplate reader (ClarioStar, BMG labtech). The reaction progress was recorded using the following settings: 348-20 nm; emission: 476-20 nm; gain: 1500; focal height: 11.9 mm; flashes: 17; orbital averaging: off.
In the case of B1, the Michaelis-Menten constant (Km) came to 14.2 µM and the turnover number (kcat) turned out to be 0.101 s⁻¹.

Consider B2, for which the Michaelis constant (Km) amounted to 5.06 µM and the catalytic constant (kcat) came to 0.582 s⁻¹.

In the case of B3, the Km amounted to 3.33 µM and the turnover number (kcat) stood at 0.834 s⁻¹.

In the case of B4, the Km is 18.6 µM and the kcat was 0.093 s⁻¹.

In the case of B5, the Km was determined as 58.4 µM and the kcat was 0.030 s⁻¹.

Turning to B6, the Km worked out at 66.2 µM and the turnover number (kcat) amounted to 0.019 s⁻¹.

Turning to B7, the Michaelis-Menten constant (Km) came out at 686 µM and the kcat stood at 0.190 s⁻¹.

With B8, the Michaelis constant (Km) stood at 218 µM and the kcat turned out to be 0.051 s⁻¹.

B9: the Michaelis-Menten constant (Km) is 0.11 µM and the kcat turned out to be 0.133 s⁻¹.
